According to paper PMC6167709:

What was measured:
[1] = SEC; ConSOSL.UFO.664 from concentrated 293T.17 supernatant, in PBS, Enrich SEC 650 column; oligomeric state of the gp140
[2] = molecular target: ConSOSL.UFO.664 gp140 (HIV-1 (group M consensus, ConS)); assay: as above

Substance: ConSOSL.UFO.664 gp140
- share of the trimer peak in the SEC profile [1]: trimer peak ∼54%
- stoichiometry N [2]: 3
